Measurements taken from patent US9433687B2, “Anti-Notch3 antibodies and antibody-drug conjugates” (Pfizer Inc., priority 2012, dated 2016).

Assays:
[1] = target: T1, cell surface Notch3 on HCC2429 cells (Homo sapiens, UniProt Q9UM47); test: Cell-based ELISA, HCC2429 cells; details: Table 29; LB = lacked binding
T1 construct: endogenous Notch3 expressing cell lines, HCC2429 and MDA-MB-468; endogenous in cells; host or cells: HCC2429
Protocol: Unconjugated anti-Notch3 antibodies, anti-Notch3 ADCs and a negative control antibody (huNeg8.8) were screened for cell surface binding activity to Notch3 expressing cell lines in a cell-based ELISA. Over-expressing Notch3 cell line, U2OS/hNotch3, and endogenous Notch3 expressing cell lines, HCC2429 and MDA-MB-468, were plated at 50,000, 200,000 and 100,000 cells/well, respectively, in 96 well plates (white opaque, BD/VWR) the day before ELISA assay. On the day of the ELISA, culture media was removed from wells and serially diluted (1:3 in DPBS with calcium chloride and magnesium chloride (Ca/Mg) and 1% BSA) antibody and ADC solutions were applied to the plate. Plates were incubated at room temperature for 2 hours before washed with DPBS with Ca/Mg and 1% BSA. HRP-conjugated secondary antibody was then applied and incubated with cells for 1 hour. Plates were washed with DPBS with Ca/Mg and 1% BSA before being developed with Pico-Chemiluminescent developing kit (Thermal Scientific), and chemiluminescence measurements were performed per manufacturer's instructions. Data plotting and analyses were performed with Microsoft Excel and Graphpad-Prism software.
Unconjugated cysteine mutant humanized anti-Notch3 antibodies were screened for cell surface binding activity to Notch3 expressing cell lines in a cell-based ELISA, as described in previous Examples. […]

OVCAR3 = target: T2, OVCAR3 (Homo sapiens, UniProt Q9UM47); test: Flow cytometry (FACS) binding, OVCAR3; details: 4 μg/mL antibody
T2 construct: Notch3 endogenously expressing cells MDA-MB-468, HCC2429 and OVCAR3; endogenous in cells; host or cells: OVCAR3
T2 sequence (Q9UM47 40-2321): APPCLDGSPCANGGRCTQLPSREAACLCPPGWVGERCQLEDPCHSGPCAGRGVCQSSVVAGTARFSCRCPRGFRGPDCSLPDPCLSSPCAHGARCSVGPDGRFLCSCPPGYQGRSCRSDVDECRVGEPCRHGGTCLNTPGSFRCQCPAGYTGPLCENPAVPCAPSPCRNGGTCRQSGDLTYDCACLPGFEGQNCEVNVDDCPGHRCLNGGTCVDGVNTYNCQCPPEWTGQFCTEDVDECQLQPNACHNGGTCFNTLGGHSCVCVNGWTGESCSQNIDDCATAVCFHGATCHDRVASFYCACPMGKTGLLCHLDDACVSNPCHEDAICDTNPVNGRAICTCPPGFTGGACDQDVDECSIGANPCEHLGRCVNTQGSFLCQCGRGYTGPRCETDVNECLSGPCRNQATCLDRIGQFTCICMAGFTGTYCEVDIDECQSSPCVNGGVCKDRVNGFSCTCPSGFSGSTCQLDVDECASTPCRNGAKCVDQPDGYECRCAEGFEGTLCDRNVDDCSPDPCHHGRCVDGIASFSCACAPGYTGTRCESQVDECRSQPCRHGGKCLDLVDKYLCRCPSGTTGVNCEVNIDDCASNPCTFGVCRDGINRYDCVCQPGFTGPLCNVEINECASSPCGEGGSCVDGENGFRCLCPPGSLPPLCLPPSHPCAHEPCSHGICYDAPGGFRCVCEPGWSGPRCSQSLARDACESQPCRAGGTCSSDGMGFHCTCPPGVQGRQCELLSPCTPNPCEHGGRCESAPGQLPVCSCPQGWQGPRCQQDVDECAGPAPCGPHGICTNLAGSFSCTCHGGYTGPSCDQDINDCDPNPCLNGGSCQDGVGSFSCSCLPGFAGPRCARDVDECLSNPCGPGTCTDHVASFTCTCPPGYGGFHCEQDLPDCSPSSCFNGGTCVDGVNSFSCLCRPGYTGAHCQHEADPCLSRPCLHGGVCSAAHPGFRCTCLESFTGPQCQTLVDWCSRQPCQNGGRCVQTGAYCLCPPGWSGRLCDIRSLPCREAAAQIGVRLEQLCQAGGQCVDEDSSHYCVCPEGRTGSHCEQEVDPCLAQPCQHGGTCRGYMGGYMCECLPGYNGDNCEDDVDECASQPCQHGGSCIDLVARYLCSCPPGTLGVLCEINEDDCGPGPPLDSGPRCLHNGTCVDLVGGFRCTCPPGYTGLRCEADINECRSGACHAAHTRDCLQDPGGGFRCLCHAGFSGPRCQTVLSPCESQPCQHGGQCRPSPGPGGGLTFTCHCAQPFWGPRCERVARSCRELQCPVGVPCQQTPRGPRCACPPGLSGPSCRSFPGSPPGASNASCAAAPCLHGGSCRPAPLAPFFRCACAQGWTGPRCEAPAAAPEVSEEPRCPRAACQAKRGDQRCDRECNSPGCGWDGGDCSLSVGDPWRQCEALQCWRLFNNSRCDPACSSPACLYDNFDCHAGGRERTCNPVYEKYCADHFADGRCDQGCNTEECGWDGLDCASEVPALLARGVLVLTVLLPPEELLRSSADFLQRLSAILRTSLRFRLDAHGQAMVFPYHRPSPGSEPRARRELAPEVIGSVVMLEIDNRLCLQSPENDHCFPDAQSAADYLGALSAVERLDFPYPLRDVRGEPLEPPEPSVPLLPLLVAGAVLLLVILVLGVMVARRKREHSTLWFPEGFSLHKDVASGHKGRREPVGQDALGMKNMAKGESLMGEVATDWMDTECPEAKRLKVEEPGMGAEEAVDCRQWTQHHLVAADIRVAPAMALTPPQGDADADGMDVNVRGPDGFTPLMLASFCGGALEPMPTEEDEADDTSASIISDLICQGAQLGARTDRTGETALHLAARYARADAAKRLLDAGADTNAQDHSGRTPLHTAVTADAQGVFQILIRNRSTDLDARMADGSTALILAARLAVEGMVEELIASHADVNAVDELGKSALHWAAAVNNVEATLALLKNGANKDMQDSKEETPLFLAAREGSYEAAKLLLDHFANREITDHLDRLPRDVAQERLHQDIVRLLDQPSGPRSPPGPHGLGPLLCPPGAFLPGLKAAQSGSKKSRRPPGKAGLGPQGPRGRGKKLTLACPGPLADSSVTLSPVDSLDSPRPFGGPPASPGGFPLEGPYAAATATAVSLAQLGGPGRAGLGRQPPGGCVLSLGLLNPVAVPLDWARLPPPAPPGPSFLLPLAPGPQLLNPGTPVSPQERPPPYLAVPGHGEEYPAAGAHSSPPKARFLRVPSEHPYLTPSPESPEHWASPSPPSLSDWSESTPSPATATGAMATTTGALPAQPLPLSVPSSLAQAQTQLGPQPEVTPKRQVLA
Protocol: Unconjugated anti-Notch3 antibodies, hu28 and hu75, were examined for cell surface binding activity to Notch3 expressing cell lines by flow cytometry. Fluorescence activated cell sorting (FACS) analysis was conducted according to standard procedures. Cells were rinsed in HBSS with calcium chloride and magnesium chloride (herein termed HBSS++), harvested using trypsin without EDTA and neutralized with medium containing FBS. Cells were incubated on ice for 30 minutes with 4 μg/mL anti-Notch3 antibodies, hu28 and hu75, in HBSS++containing 3% HICS (heat-inactivated calf serum). Cells were washed three times with cold HBSS++, 3% HICS buffer. Cells were incubated in allophycocyanin-conjugated AffiniPure F(ab′)2 fragment goat anti-human IgG, Fc fragment secondary antibody (Jackson ImmunoResearch Laboratories, Inc., West Grove, Pa.) at 10 μg/mL for 30 minutes on ice in the dark. Cells were washed once with cold HBSS++/3% HICS buffer. Cells were resuspended in HBSS-++/3% HICS, 25 mM HEPES, 1 mM MgCl2 and 25 μg/ml DNaseI. 7-AAD (7-Amino-Actinomycin D) was added for exclusion of nonviable cells. Live cells were analyzed on a BD FACSCalibur flow cytometer (BD Biosciences, San Jose, Calif.). Mean fluorescence intensity (MFI) from channel FL-4 was calculated with FlowJo flow cytometry analysis software (Ashland, Oreg.).

[2] = target: T3, cell surface Notch3 on OVCAR3 cells (Homo sapiens, UniProt Q9UM47); test: Cell-based ELISA, OVCAR3 cells; details: Table 29; LB = lacked binding
T3 construct: Notch3 endogenously expressing cells MDA-MB-468, HCC2429 and OVCAR3; endogenous in cells; host or cells: OVCAR3
T3 sequence (Q9UM47 40-2321): as above

HCC2429 lung xenografts = test: HCC2429 lung xenograft model (unconjugated antibodies); assay type: in vivo, mouse; details: for tumor volume (mm^3 ± SEM): iv Q4dx4
Protocol: Additional in vivo experiments were performed with the HCC2429 lung cancer cell line using an unconjugated rat-human chimeric anti-Notch3 antibody, ch75-hIgG1, to determine whether ch75-hIgG1's Notch3 signaling inhibition contributed to the observed potency of the anti-Notch3 hu75-ADCs. To generate xenografts, nude (Nu/Nu) female mice were implanted subcutaneously with 3.5×10^6 HCC2429 cells in 50% Matrigel (BD Biosciences).
The HCC2429 lung model was dosed intravenously Q4d×4 with PBS vehicle, rat-human chimeric anti-Notch3 antibody, ch75-hIgG1, and humanized anti-Notch1 antibody, hu438 VH1.1/VL1.8, at the does provided in Table 22. From 8 animals, mean tumor masses (±SEM) for each treatment group were calculated and compared to the control PBS vehicle group. P-values based on analysis of variance (ANOVA) were calculated to determine statistical significance of observed growth inhibition of anti-Notch treatments versus control PBS using Excel built-in statistical functions. Percent (%) growth inhibition values were calculated from measurements on the final day of the study for drug-treated compared with vehicle-treated mice with the formula 100*{1−[(TreatedDay 14−TreatedDay 0)/(ControlDay 14−ControlDay 0)]}.

T1 sequence (Q9UM47 40-2321): as above

| EC50 [1] [nM] | MFI (OVCAR3) | EC50 [2] [nM] | Molecule | tumor volume (mm^3 ± SEM) (HCC2429 lung xenografts; Day 0, dose not given) [mm^3] | tumor volume (mm^3 ± SEM) (HCC2429 lung xenografts; Day 3) [mm^3] | tumor volume (mm^3 ± SEM) (HCC2429 lung xenografts; Day 5) [mm^3] | tumor volume (mm^3 ± SEM) (HCC2429 lung xenografts; Day 7) [mm^3] | tumor volume (mm^3 ± SEM) (HCC2429 lung xenografts; Day 10) [mm^3] | tumor volume (mm^3 ± SEM) (HCC2429 lung xenografts; Day 12) [mm^3] | tumor volume (mm^3 ± SEM) (HCC2429 lung xenografts; Day 14) [mm^3] | tumor growth inhibition compared to PBS vehicle (HCC2429 lung xenografts; final day of the study (Day 14)) |
| --- | --- | --- | --- | --- | --- | --- | --- | --- | --- | --- | --- |
| 0.1 | 116 | 0.46 | hu28 VH1.0/VL1.0: humanized r28 variant VH1.0/VL1.0, anti-Notch3 antibody (VH SEQ ID NO: 13, VL SEQ ID NO: 25) (antibody, V domains shown) VH: EVQLVESGGGLVQPGGSLRLSCAASGFTFRDYGMTWVRQAPGKGLEWVAYISSGSNYIYYAEAVKGRFTISRDNAKNSLYLQMNSLRAEDTAVYYCARRGPFVLDAWGQGTLVTVSS VL: DIQMTQSPSSLSASVGDRVTITCKASQSINRYLHWYQQKPGKAPKLLIYNANGLQTGVPSRFSGSGSGTDFTLTISSLQPEDFATYYCLQHNTWPDTFGGGTKVEIK | – | – | – | – | – | – | – | – |
| – | – | – | ch75: rat-human chimeric anti-Notch3 antibody 75, rat variable regions fused with human IgG1 and human kappa (antibody, V domains shown) VH: QVKLLQSGAALVKPGASVKMSCKASGYAFTDYWVTWVKQSHGKSLEWIGEISPNSGGTNFNEKFKGKATLTVDKSTSTAYMELSRLTSEDSAIYYCTRGEIRYNWFAYWGQGTLVTVSS VL: NIVMTQSPKSMSISVGDRVTMNCKASQNVGNNIAWYQQKPGQSPKLLIYYASNRYTGVPDRFTGGGYGTDFTLTINSMQAEDAAFYYCQRLYNSPFTFGSGTKLEIK | 110 ± 5 | 211 ± 24 | 356 ± 41 | 574 ± 59 | 1054 ± 104 | 1441 ± 139 | 1821 ± 175 | did not inhibit tumor growth |
